# Experimental data as given in US20190315864A1 (SUZHOU ALPHAMAB, published 2019).
# Experiments:
# CTLA4-Fc fusion protein [1] = biological target: T1, CTLA4-Fc fusion protein (human, biotinylated where used as CTLA4-Fc-Biotin (Examples 5.1-5.3)); experiment: ELISA, CTLA4-Fc coated, 10 ng VHH/well
# T1 construct: expressed in HEK293 cells; also called human CTLA4-Fc protein; CTLA4-Fc antigen protein
# Method: (§1) Plates were coated with CTLA4-Fc fusion protein overnight at 4° C. and 10 ng of the heavy chain single-domain antibody obtained in Example 2.1 (the control was a single domain antibody not binding to the CTLA4-Fc protein) was added to each well and allowed to react for 1 hour at room temperature. After washing, primary antibody anti-His tag antibody (purchased from Beijing Kangwei Century Biotechnology Co., Ltd.) was added and reacted for 1 hour at room temperature. After washing, a secondary goat anti-mouse horseradish peroxidase-labeled antibody (Yiqiao Shenzhou, Cat: SSA007200) was added and reacted for 1 hour at room temperature. After washing, chromogenic agent was added and the absorbance was read at 405 nm.
# Fc protein = biological target: T2, Fc protein; experiment: ELISA, Fc protein coated, 10 ng VHH/well
# T2 construct: Counter-screen for the Fc part of CTLA4-Fc
# Method: (§2) Plates were coated with Fc protein overnight at 4° C. and 10 ng of the heavy chain single domain antibody obtained in Example 2.1 was added to each well (control was a single domain antibody against other unrelated targets) and allowed to react for 1 hour at room temperature. After washing, an rabbit anti-human Fc antibody (purchased from Shanghai Pu Xin Biotechnology Co., Ltd.) was added and reacted for 1 hour at room temperature. After washing, goat anti-rabbit horseradish peroxidase labeled antibody (purchased from Shanghai Pu Xin Biotechnology Co., Ltd.) was added and reacted at room temperature for 1 hour. After washing, chromogenic agent was added and the absorbance was read at 405 nm.
# CTLA4-Fc fusion protein [2] = biological target: T1, CTLA4-Fc fusion protein; experiment: ELISA OD ratio, value equals OD(CTLA4)/OD(Fc)
# Method: as §1, §2
# CTLA4-Fc fusion protein [3] = biological target: T1, CTLA4-Fc fusion protein; experiment: ELISA OD ratio, value equals OD(CTLA4)/OD(blank)
# Method: as §1
# CTLA4-Fc fusion protein [4] = biological target: T1, CTLA4-Fc fusion protein; experiment: competitive ELISA: CD80-Fc-Biotin signal on coated CTLA4-Fc with 500 ng VHH/well; competitor CD80-Fc-Biotin
# Method: SA-HRP (purchased from Sigma) was added and allowed to react for 1 hour at room temperature. After adding chromogenic solution, absorbance was read at 405 nm wavelength.
Binder,OD (against CTLA4) (CTLA4-Fc fusion protein [1]),OD (against Fc) (Fc protein),ODa/OD blank (CTLA4-Fc fusion protein [2]),ODa/ODb (CTLA4-Fc fusion protein [3]),OD (CTLA4-Fc fusion protein [4])
"CTLA4 heavy chain single domain antibody No. 165 (VHH, Camel VHH expressed in E. coli (PET32b), nickel-purified) VHH: QVQLQESGGGSVQTGGSLRLSCVVSGHSYSRKCMGWFRQAPGKEREEVATFYTGDGRTYYADSVKGRFTISQDNAKNTLYLQMNSLKPEDTGMYFCAADRRVNCDLLQSTFYNYRGQGTQVTVSS",1.21 OD405,0.051 OD405,23.8,43.4,1.84 OD405
"CTLA4 heavy chain single domain antibody No. C22 (VHH, Camel VHH expressed in E. coli (PET32b), nickel-purified) VHH: QVQLQESGGGSVQAGGSLRLSCTVSQHTSRYYYMAWFRQAPGKEREGVASIWTGGGTPGYADSAKGRFTISTDNAKNTIYLQMNSLKPEDTAMYYCAADDRGGRWSLGTMAVGGYKYWGQGTQVTVSS",0.848 OD405,0.06 OD405,14.1,30.3,2.47 OD405
"CTLA4 heavy chain single domain antibody No. C16 (VHH, Camel VHH expressed in E. coli (PET32b), nickel-purified) VHH: QVQLQESGGGSVQAGGSLTLSCAASGYTGDLVAWFRQTPGKEREGVAAISRTGLTTYYADSVKGRFTISQDTAKNTGYLQMNSMKPEDTAMYYCVAGWHVGGTWYKTSSYDYWGQGTQVTVSS",1.79 OD405,0.053 OD405,33.7,63.8,1.89 OD405
"CTLA4 heavy chain single domain antibody No. J69 (VHH, Camel VHH expressed in E. coli (PET32b), nickel-purified) VHH: QVQLQESGGGLVQPGGSLRLSCAASGFTLSSYSMTWLRQAPGKGLEWVSTINSGGSTSYADSVKGRFAISRDNAKNTLYLQLNSLEIEDTGMYYCQGGLTRGQGTQVTVSS",0.635 OD405,0.037 OD405,17.2,22.7,2.34 OD405

# Second part, the binder after the results:
OD (against CTLA4) (CTLA4-Fc fusion protein [1]),OD (against Fc) (Fc protein),ODa/OD blank (CTLA4-Fc fusion protein [2]),ODa/ODb (CTLA4-Fc fusion protein [3]),OD (CTLA4-Fc fusion protein [4]),Binder
0.537 OD405,0.037 OD405,14.5,19.2,2.53 OD405,"CTLA4 heavy chain single domain antibody No. 119 (VHH, Camel VHH expressed in E. coli (PET32b), nickel-purified) VHH: QVQLQESGGGSVQAGGSLRLSCAASEYTYHTNCMGWFRQAPGKEREGLAVMNPSGGVTYFADSVKGRFTISRDNAKNTVYLQMNSLKPEDTAMYYCAAGRGRCSGYSGYYNEWGQGTQVTVSS"
0.632 OD405,0.121 OD405,5.2,22.6,2.41 OD405,"CTLA4 heavy chain single domain antibody No. J78 (VHH, Camel VHH expressed in E. coli (PET32b), nickel-purified) VHH: QVQLQESGGGSVQAGGSLRLSCTVSQHTSRYYYMAWFRQAPGKEREGVASIWTGGGTPGYADSAKGRFTISADNAKNTIYLQMNSLKPEDTAMYYCAADDRGGRWSLGTMAVGGYKYWGQGTQVTVSS"
1.27 OD405,0.036 OD405,35.2,45.3,0.893 OD405,"CTLA4 heavy chain single domain antibody No. 128 (VHH, Camel VHH expressed in E. coli (PET32b), nickel-purified) VHH: QVQLQESGGGSVQAGGSLKLSCAASGYTDYTYNTSCMGWFRQTPGKERERVATVNKVGSTIYADSVKGRFTISKDNVKNTLYLQMNSLKPEDTAMYYCAARGSWSCSQFWGDFGYWGQGTQVTVSS"
1.84 OD405,0.041 OD405,45,65.8,1.92 OD405,"CTLA4 heavy chain single domain antibody No. 138 (VHH, Camel VHH expressed in E. coli (PET32b), nickel-purified) VHH: QVQLQESGGGSVQAGGSLTLSCAASGYANSNTCMGWFRQAPGKERERVAAISGVGTGTYYADSVKGRFTISRDNGKNTLFLQMNSLKPEDTAMYYCAAAPEGRAWCSRDPSGYNYWGQGTQVTVSS"
0.234 OD405,0.046 OD405,5.1,8.4,2.58 OD405,"CTLA4 heavy chain single domain antibody No. 116 (VHH, Camel VHH expressed in E. coli (PET32b), nickel-purified) VHH: QVQLQESGGGLVQPGGSLRLSCEASGFTFSSYTMTWLRQAPGKGLEWVSTINSGGSTSYADSVKGRFAISRDNAKNTLYLQLNSLEIEDTGMYYCQGGLTRGQGTQVTVSS"
1.51 OD405,0.085 OD405,17.8,54,2.43 OD405,"CTLA4 heavy chain single domain antibody No. C29 (VHH, Camel VHH expressed in E. coli (PET32b), nickel-purified) VHH: QVQLQESGGGSVQAGGSLRLSCAVSGYTYSGYCMGWFRQAPGKEREGVAAISRGDGSPGYADSVKGRFTISQDNAKNTLYLQMNSLKPEDTAMYYCAADVIPTETCSYGSWSGPNGYWGQGTQVTVSS"
